Measurements published in article PMC8999913.

Molecular target: VAP-A (VAMP-associated protein A) (UniProt Q9P0L0)
Test: anti-GFP co-IP after DSP crosslinking, VAP-A blot
Conditions: reference: WT, sorbitol-treated; sites S315

binding against the reference: weaker
Substance: CERT (ceramide transport protein) (from UniProt Q9Y5P4) S315A, sorbitol-treated
